Test results reported in patent publication US12673108B2 (Oxford University Innovation Limited, priority 2021, dated 2026).
Square brackets hold non-standard residues; d marks the D form. Ends that are not written are not given here. Ahx = NCCCCCC(=O)O; βAla = NCCC(=O)O

Legend:
[1] = fmoc spps; Fmoc-beta-Ala-OH preloaded Wang resin (0.19 or 0.46 mmol g-1); PyBOP/NMM; PyBOP/HOAt/DIPEA (or HBTU) for PMO conjugation; conditions: conjugation step, UV-Vis, based on PMO extinction coefficient, scale 10 pmol or 100 pmol (so in the source)
[2] = Toxicological assessment of peptide-PMO (urinary KIM-1, NGAL; serum BUN); format: in vivo, C57BL/6 mice; conditions: for urinary KIM-1 levels: single dose 30 mg/kg (2.5-50 mg/kg); for urinary KIM-1 levels / urinary NGAL levels: urine Day 2 and Day 7, normalised to urinary creatinine; for urinary NGAL levels: single dose 30 mg/kg
Experimental: Female C57BL/6 mice aged 8-10 weeks were administered a single 30 mg/kg dose of peptide-PMO in 0.9% saline by bolus intravenous tail vein injection. Urine was non-invasively collected under chilled conditions at Day 2 and Day 7 post-administration following 20 hours housing in metabolic cages (Tecniplast, UK). Serum was collected from jugular vein at Day 7 at necropsy, as was tibialis anterior, diaphragm and heart tissue.
The same procedure was followed at different single dosage amounts ranging from 2.5 mg/kg up to 50 mg/kg of peptide-PMO in 0.9% saline by intravenous tail vein injection.
Urinary levels of KIM-1 (Kidney injury molecule-1) and NGAL (Neutrophil Gelatinase-Associated Lipocalin) were quantified by ELISA (KIM-1 R&D cat #MKM100, NGAL R&D cat #MLCN20) following appropriate dilution of urine to fit standard curves. Values were normalised to urinary creatinine levels that were quantified at MRC Harwell Institute, Mary Lyon Centre, Oxfordshire, UK. Serum blood urea nitrogen levels were quantified at MRC Harwell Institute, Mary Lyon Centre, Oxfordshire, UK.
All levels were quanitifed on an AU680 Clinical Chemistry Analyser, Beckman Coulter. Quantification of exon skipping efficacy was determined by quantitative RT-PCR of exon 23 skipped and unskipped transcripts and expressed as percentage of skipped versus total (skipped and unskipped) transcripts (see Table 7 for sequences).

dystrophin = conditions: in vivo; cited from earlier work
human hepatocytes = assay: Hepatocyte cell viability (fluorescent-based assay); conditions: 40 uM
Experimental: Immortalized myoblasts from healthy individual or DM1 patient with 2600 CTG repeats were cultivated in a growth medium consisting of a mix of M199: DMEM (1:4 ratio; Life technologies) supplemented with 20% FBS (Life technologies), 50 µg/ml gentamycin (Life technologies), 25 pg/ml fetuin, 0.5 ng/ml bFGF, 5 ng/ml EGF and 0.2 pg/ml dexamethasone (Sigma-Aldrich). Myogenic differentiation was induced by switching confluent cell cultures to DMEM medium supplemented with 5 pg/ml insulin (Sigma-Aldrich) for myoblasts. For treatment, WT or DM1 cells are differentiated for 4 days. Then, medium was changed with fresh differentiation medium with peptide-PMOs at a 1, 2, 5 10, 20 or 40 pM concentration. Cells were harvested for analysis 48 h after treatment. Cell viability was quantified in after 2 days of transfection of peptide-PMOs at 40 uM in human hepatocytes or at a 1, 2, 5 10, 20 or 40 pM concentration in human myoblasts using a fluorescent-based assay (Promega).

[3] = Recovery times of mice after injection with peptide-PMOCAG7 conjugates; format: in vivo, C57BL6 mice; conditions: 12.5 mg/kg; HSA-LR mice; age 8-12 weeks
Experimental: Animal experiments and ASO injections. Experiments were carried out in the University of Oxford according to UK legislation. The intravenous injections in HSA-LR C57BL/6 mice were performed by single or repeated administrations via the tail vein. Doses of 30, 12.5, 7.5 and 5 mg/kg of peptide-PMO-CAG7 (SEQ ID NO: 192) were diluted in 0.9% saline and given at a volume of 5-6 pL/g of body weight. KIM-1 levels in C57BL6 female mice measured by ELISA (R&D cat #MKM100) with samples diluted to fit within standard curve. Values were normalised to urinary creatinine levels (Harwell) to account for urine protein concentration.

## Ac-RBRRBRFQILYBRBR-(E)-PMO (GGCCAAACCTCGGCTTACCTGAAAT; peptide Ac-RBRRBRFQILYBRBR-(E) conjugated, chemistry not fully specified)
[1]
  conjugation yield: 39%

## Ac-RBRRBRRFQILYRBHBH-(Ab)-PMO (GGCCAAACCTCGGCTTACCTGAAAT; listed as DNA, chemistry not fully specified)
[1]
  conjugation yield: 26%

## DPEP 1.9 (Ac-R[βAla]RR[βAla]RFQILY[βAla]R[βAla]R[βAla]; also: PMO conjugate, site not given here)
[2]
  urinary KIM-1 levels: lowest levels
  urinary NGAL levels: lowest levels

## DPEP 3.8 (Ac-R[βAla]RR[βAla]RFQILYR[βAla]H[βAla]H[βAla]; also: PMO conjugate, site not given here)
[2]
  urinary KIM-1 levels: lowest levels
  urinary NGAL levels: lowest levels

## Pip9b2 (Ac-R[Ahx]RR[βAla]RRFQILYR[βAla]R[Ahx]R[βAla]; also: PMO conjugate, site not given here) [reference compound]
[2]; 7 days after single dose of 30 mg/kg
  Serum blood urea nitrogen levels: elevated

## eteplirsen
dystrophin
  levels of dystrophin restoration: approximately 1 % of normal dystrophin levels

## pip6a: prior peptide carrier AC-RXRRBRRXR-YQFLI-RXRBRXR-B conjugated to [CAG]7 PMO (SEQ ID NO: 192) (Ac-R[Ahx]RR[βAla]RR[Ahx]RYQFLIR[Ahx]R[βAla]R[Ahx]R[βAla]; also: conjugated to [CAG]7 PMO, site not given here) [reference compound]
Human hepatocytes
  percentage hepatocyte cell viability: cell mortality
[3]
  Recovery time after injection, Time AV ± SD: >60 min
